Test results from patent US20130260455A1 (ONCOMED PHARMACEUTICALS, published 2013).
Where a chain is given by its changes, count along the chain named.

What was measured:
[1] = molecular target: T1, recombinant human Notch3 (EGF9-14) (human, UniProt Q9UM47 351-580); test: Biacore SPR
T1 construct: The whole entry for hNotch3 is named here; also called hNotch3; h-Notch3
T1 sequence: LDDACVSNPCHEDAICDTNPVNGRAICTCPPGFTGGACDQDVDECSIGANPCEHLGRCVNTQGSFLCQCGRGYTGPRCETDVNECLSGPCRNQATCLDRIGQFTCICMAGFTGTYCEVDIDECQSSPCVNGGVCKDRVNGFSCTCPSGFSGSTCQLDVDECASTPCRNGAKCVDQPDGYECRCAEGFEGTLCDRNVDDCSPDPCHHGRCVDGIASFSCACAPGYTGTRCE

[2] = molecular target: T2, human Notch2 as used in the Biacore analysis of Table 6 (construct not stated) (human, UniProt Q04721 375-605, limits assumed); test: Biacore SPR
T2 construct: also called h-Notch2
T2 sequence: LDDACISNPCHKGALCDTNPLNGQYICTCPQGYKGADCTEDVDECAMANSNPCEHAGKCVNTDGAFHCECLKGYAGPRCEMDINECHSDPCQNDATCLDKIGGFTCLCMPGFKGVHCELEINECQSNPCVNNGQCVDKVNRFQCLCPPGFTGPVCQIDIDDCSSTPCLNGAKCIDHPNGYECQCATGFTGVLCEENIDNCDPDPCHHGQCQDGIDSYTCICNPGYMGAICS

[3] = molecular target: T3, recombinant mouse Notch3 (EGF9-14) (mouse, UniProt Q61982 352-581); test: Biacore SPR
T3 construct: domain: EGF9-14; also called mNotch3; m-Notch3
T3 sequence (looked up): T1 sequence with N22S, T153M, D193E, T227I

[4] = molecular target: T4, recombinant human Notch1 (EGF10-15) (human, UniProt P46531 372-601); test: Biacore 2000 SPR; Notch protein amine-coupled to CM5 chip, antibody 1-100 nM injected; Table 3: Biacore 2000, hNotch1 EGF10-15 on CM5 chip, antibody 1-100 nM; fitted KD
T4 construct: The whole entry for hNotch1 is named here; also called hNotch1; h-Notch1
Procedure: The affinities for human and mouse Notch1, Notch2, Notch3, and Notch4 were determined using a Biacore 2000 instrument. Briefly, recombinant human and mouse Notch proteins (EGF10-15 for Notch1, 2, & 4; EGF9-14 for Notch3) were immobilized on a CM5 chip using standard amine based chemistry (NHS/EDC). For hNotch2. EGF1-12 was also tested for binding. Different antibody concentrations (1-100 nM) were injected over the protein surfaces and kinetic data were collected over time. The data was fit using the simultaneous global fit equation to yield dissociation constants (KD, nM) for each Notch (Table 3).

[5] = molecular target: T5, hNotch2 H385N AL 388-89 SN mutant, full length, on transfected cells (human, UniProt Q04721 26-2471); test: FACS on transfected cells
T5 construct: also called mutant hNotch2 in which certain EGF10 residues have been mutated to hNotch1 residues
T5 sequence (Q04721 26-2471 H385N/A388S/L389N limits assumed): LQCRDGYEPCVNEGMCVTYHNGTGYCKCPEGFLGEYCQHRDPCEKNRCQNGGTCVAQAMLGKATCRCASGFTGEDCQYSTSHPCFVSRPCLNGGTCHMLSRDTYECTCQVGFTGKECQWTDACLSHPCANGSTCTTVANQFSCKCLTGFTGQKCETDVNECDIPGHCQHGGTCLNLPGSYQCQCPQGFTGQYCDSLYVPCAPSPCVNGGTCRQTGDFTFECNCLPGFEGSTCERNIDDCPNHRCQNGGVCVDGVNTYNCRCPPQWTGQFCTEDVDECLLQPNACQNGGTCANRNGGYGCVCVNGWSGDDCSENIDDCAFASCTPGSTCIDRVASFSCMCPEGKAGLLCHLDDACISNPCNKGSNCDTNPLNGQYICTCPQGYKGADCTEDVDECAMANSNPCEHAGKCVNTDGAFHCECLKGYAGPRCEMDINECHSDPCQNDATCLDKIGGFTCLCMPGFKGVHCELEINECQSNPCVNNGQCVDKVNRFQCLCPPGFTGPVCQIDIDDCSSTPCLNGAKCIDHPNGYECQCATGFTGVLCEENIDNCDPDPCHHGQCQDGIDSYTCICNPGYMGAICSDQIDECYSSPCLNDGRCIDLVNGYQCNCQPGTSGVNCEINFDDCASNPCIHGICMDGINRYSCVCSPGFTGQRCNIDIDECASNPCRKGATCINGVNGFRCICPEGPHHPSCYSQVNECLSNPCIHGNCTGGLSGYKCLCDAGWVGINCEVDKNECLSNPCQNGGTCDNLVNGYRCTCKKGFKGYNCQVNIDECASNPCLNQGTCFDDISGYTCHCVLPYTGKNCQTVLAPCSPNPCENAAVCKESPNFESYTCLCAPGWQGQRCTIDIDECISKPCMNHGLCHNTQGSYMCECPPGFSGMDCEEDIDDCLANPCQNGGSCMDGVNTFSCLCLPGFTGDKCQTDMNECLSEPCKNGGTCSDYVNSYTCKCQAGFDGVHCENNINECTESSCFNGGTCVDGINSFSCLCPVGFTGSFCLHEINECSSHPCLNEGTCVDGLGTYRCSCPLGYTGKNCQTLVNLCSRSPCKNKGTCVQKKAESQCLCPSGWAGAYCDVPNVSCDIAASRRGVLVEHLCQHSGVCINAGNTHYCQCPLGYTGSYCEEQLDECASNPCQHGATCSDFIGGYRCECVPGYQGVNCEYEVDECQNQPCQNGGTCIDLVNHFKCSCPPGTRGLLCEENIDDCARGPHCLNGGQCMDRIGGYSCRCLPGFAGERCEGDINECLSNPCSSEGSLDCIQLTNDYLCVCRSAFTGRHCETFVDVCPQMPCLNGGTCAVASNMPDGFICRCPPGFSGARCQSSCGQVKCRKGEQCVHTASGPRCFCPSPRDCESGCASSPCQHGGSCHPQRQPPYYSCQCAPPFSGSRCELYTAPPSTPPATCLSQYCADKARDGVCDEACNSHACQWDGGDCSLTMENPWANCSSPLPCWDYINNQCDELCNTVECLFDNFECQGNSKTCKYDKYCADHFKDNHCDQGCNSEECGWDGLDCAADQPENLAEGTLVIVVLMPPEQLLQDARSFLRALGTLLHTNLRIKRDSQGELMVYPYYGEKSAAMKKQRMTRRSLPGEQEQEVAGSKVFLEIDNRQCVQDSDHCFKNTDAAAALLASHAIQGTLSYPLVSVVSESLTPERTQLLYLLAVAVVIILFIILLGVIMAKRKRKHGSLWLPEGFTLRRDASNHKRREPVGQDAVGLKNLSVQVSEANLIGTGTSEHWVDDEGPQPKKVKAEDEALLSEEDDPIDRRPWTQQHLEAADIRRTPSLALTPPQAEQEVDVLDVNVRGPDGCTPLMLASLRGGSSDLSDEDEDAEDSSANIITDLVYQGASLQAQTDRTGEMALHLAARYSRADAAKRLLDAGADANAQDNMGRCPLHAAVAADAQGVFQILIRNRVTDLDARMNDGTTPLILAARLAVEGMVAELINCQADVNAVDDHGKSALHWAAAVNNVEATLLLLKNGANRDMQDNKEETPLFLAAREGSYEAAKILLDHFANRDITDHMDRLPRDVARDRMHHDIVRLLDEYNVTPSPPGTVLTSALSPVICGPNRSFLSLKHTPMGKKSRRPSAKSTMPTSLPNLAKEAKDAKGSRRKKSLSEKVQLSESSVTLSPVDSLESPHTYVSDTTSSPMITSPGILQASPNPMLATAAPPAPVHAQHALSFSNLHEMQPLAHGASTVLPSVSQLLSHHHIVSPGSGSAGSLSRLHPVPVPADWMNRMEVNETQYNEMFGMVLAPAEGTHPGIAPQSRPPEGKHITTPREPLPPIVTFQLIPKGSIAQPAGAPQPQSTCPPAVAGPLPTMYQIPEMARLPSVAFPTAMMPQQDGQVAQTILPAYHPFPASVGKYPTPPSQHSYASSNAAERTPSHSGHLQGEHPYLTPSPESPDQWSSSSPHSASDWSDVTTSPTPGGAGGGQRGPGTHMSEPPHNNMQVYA
Procedure: A comparison analysis of the EGF10 regions of human Notch1, Notch2, and Notch4 and the EGF9 region of human Notch3 (the equivalent of EGF10 in the other Notch receptors) was performed to determine likely binding sites for 59R1 (FIG. 14A). As a result of the analysis, several point mutants were created within full-length Notch2, converting residues within EGF10 to the corresponding amino acids in human Notch 1. Also, conversely, point mutations were made in hNotch1 EGF10 converting residues to the corresponding hN2 residues. Mutants in full-length Notch sequences were generated by QuikChange® mutagenesis (Stratagene) and verified by sequencing. Binding to the mutants was determined by FACS analysis (FIGS. 14B and 14C). 59R1 was detected by PE-conjugated goat anti-human Fc gamma specific antibody (Jackson Immunochemicals, #109-116-170). […] The corresponding residues in hNotch3 are histidine 361, alanine 364, and isoleucine 365.

- Kd [1]: 190 pM
- Kd [2]: 50 pM
- Kd [3]: 320 pM
- Kd [4]: 86400 pM
- binding result [5]: no binding
B1: 59R1 IgG2 antibody (antibody, V domains shown)
VH: QVQLVESGGGLVQPGGSLRLSCAASGFTFSSSGMSWVRQAPGKGLEWVSVIASSGSNTYYADSVKGRFTISRDNSKNTLYLQMNSLRAEDTAVYYCARGIFFAIWGQGTLVTVSS
VL: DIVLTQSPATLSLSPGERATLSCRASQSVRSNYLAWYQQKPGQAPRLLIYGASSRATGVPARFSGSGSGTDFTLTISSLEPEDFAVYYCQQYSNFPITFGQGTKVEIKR
notes: Human IgG2/kappa made in CHO cells; also called anti-Notch2/3 antibody 59R1
